Measured values from PMC8137935, “Mechanosensitive channel YnaI has lipid-bound extended sensor paddles” (Communications Biology, 2021).

Target: the molecule itself
Assay: cryo-EM structure; purified YnaI in LMNG at ~5 mg/ml, with 3 mM fluorinated Fos-Choline-8 added right before freezing; C7 symmetry imposed; 3.3 Å

B1: YnaI (natural protein, Escherichia coli, UniProt P0AEB5 1-343, looked up)
chain: MIAELFTNNALNLVIIFGSCAALILMSFWFRRGNRKRKGFLFHAVQFLIYTIIISAVGSIINYVIENYKLKFITPGVIDFICTSLIAVILTIKLFLLINQFEKQQIKKGRDITSARIMSRIIKITIIVVLVLLYGEHFGMSLSGLLTFGGIGGLAVGMAGKDILSNFFSGIMLYFDRPFSIGDWIRSPDRNIEGTVAEIGWRITKITTFDNRPLYVPNSLFSSISVENPGRMTNRRITTTIGLRYEDAAKVGVIVEAVREMLKNHPAIDQRQTLLVYFNQFADSSLNIMVYCFTKTTVWAEWLAAQQDVYLKIIDIVQSHGADFAFPSQTLYMDNITPPEQGR
notes: YnaI, Escherichia coli, full-length, UniProt P0AEB5; in the model residues of TM-2 are built as Ala and N335-R343 have no density; Homoheptamer with co-purified lipids; Cloned into pET52b; also called mechanosensitive channel YnaI; MscS homolog YnaI; source: E. coli BL21(DE3) C43, purified in LMNG (TALON, thrombin cut, TALON flow-through, Superose 6); not shown: His-tag, C-terminal, cleaved
B1 was tested, and the “stoichiometry N” value was 7.
